Test results taken from patent US20230050972A1 (MOMENTA PHARMACEUTICALS, published 2023).
“And” between values parts separate entries of the source, which are not always exact repeats. Equal values may be shown once.

T1: in-house generated I domain of α11β1 (human, UniProt Q9UKX5 159-349, limits assumed)
T1 construct: domain: I domain; also called human α11β1 I domain; α11β1 I Domain
T1 sequence (looked up): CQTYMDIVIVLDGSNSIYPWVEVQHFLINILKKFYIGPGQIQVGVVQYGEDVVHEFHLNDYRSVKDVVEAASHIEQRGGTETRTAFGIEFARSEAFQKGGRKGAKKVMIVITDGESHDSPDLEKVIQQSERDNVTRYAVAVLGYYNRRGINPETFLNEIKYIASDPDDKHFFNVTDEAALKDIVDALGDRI

B1: 9-E16 (antibody, V domains shown)
VH: EVQLQQSGPELVKPGASVKISCKASGYTFTDYYMHWVKQKPGQGLEWIGEIYPGSGNPYYNEKFKGKATLTADKSSSSAYMQLSSLTSEDSAVYFCARTSYGRVGTGFAYWGQGTLVTVSA
VL: NFVMTQTPLSLPVSLGDQASISCRSSQSLLHSNGNTYLHWYLQKPGQSPKLLIYKVSNRFSGVPDRFSGSGSGTDFTLKINRVETEDLGIYFCSQSSHVPTFGAGTKLELK
notes: mouse hybridoma IgG
B2: 8-P20 (antibody, V domains shown)
VH: KVMLVESGGALVKPGGSLKLSCVASGFTFSNYAMSWVRQTPEKRLEWVATISSGGYYTYYPDSVKGRFTISRDNARNTLFLQMSSLRSEDTAMFYCAREDDYGRYSYTMDYWGQGTSVTVSS
VL: DVVMTQTPLSLPVSLGDQVSISCRCSQSLVHSNGNTYLHWYLQKPGQSPQLLIYKISNRFSGVPDRFSGSGSGTDFTLKISRVEAEDLGVYFCSQSTHVPYTFGGGTELEIK
notes: mouse hybridoma IgG
B3: 8-J17 (antibody, V domains shown)
VH: QVQLQQSGAELAKPGASVKMSCKASGYTFTNYWMHWVKQRPGQGLEWIGYINPNNGYTEYNQRFKDKATLTADRSSTTAYMQLSSLTSEDSAVYYCARSDIITTDYWGQGTTLTVSS
VL: DVVMTQTPLSLPVSLGDQASISCRSSQSLVYSNGNTYLHWYLQKPGQSPKLLIYKVSNRFSGVPDRFSGSGSGTDFTLKISRVEAEDLGVYFCSQSTHVPWTFGGGTKLEIK
notes: mouse hybridoma IgG
B4: 24E4G6 (antibody, V domains shown)
VH: EVQLVESGGSLVQPGGSLKLSCVASGYTFSNYWMDWVRQSPGKSLEWIGEINTDGRRTNYAPSIKDRFTISRDNAKSTLYLQMSNVKSDDTAIYYCTILRVYPHYFDYWGQGVMVTVSS
VL: DVVMTQTPPSLSVAIGQSVSISCKSSQSLVYSDGETYLHWFLQSPGRSPKRLIYHVSNLGSGVPDRFSGTGSLTDFTLRISRVEAEDLGVYYCAQTTHFPPTFGAGTKLELK
notes: rat hybridoma mAb
B5: 9-G05 (antibody, V domains shown)
VH: EVQLQQSGPELVKPGASVKIPCKASGYTFPDYNMDWVKQSHGKSLEWIGYINPDNGGTIYNQKFKGKATLTVDKSSSTAYMELRSLTSEDTAVYYCARLDSSGYGYYAMDYWGQGTSVTVSS
VL: DIVLTQSPASLAVSLGQRATISCRASESVDNYGISFMHWYQQKPGQPPKLLIYRASNLDSEIPARFSGSGSRTDFTLTIDPVETDDVATYYCQQSYKDPRTFGGGTKLEIK
notes: mouse hybridoma IgG
B6: 8-G15 (antibody, V domains shown)
VH: EVQLQQSGPELVKPGASVRISCKASGYTFTDYYIHWVKQKPGQGLECIGEIYPGTDNTYYSKKFRGKATLTADKSSDTAYMQLSSLTSEDSAVYFCARGDYYRGYFDVWGAGTTVTVSS
VL: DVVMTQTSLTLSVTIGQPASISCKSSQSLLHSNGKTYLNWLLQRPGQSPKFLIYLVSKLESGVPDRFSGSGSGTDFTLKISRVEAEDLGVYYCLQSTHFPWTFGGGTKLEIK
notes: mouse hybridoma IgG
B7: 40G10H11 (antibody, V domains shown)
VH: AVQLVESGGGLVQPGRSLKLSCAASRITFTDYYMAWVRQAPTKGLEWVATISSDGGDTFYRDSVKGRFTISRDNAKSTLYLQMVSLRSEDTATYYCSTDRGAQFGYWGQGTLVTVSS
VL: DIQMTQSPSFLSASVGDRVSINCKASQNVHENLNWYQQKLGEAPKRLIYNTNNLQTGIPSRFSGSGSGADYTLTISSLQPEDFATYFCLQHNAFPYTFGPGTKLELK
notes: rat hybridoma mAb
B8: 8-I14 (antibody, V domains shown)
VH: EVQLQQSGPELVKPGASVKKSCKASGYTFTDYYMHWVKQKPGQGLEWIGKIYPGSGNTHYNEKFKGKATLTADKSSSTAYMQLSSLTSEDSAVYFCATNYYGYRAMNYWGQGSSVTVSS
VL: DIHLTQSPSSLSASLGERISLTCRASQDIYISLNWFQQKPDGTIKLLIYGTSSLDSGVPKRFSGSRSGSDYSLTISSLESEDFADYYCLQYASSPYTFGGGTKLEIK
notes: mouse hybridoma IgG; also called 8-l14; 8114
B9: 1994_01_C07 (antibody, V domains shown)
VH: QVQLVQSGAEVKKPGASVKVSCKASGYTFTSYGISWVRQAPGQGLEWMGWISAYNGNTNYAQKLQGRVTMTTDTSTSTAYMELRSLRSDDTAAYYCARVTGITGTTIDPWGQGTMVTVSS
VL: DIQMTQSPSSLSASVGDRVTITCRASQSISSYLNWYQQKPGKAPKLLIYDASSLESGVPSRFSGSGSGTEFTLTISSLQPDDFAVYYCQQYNNWPQTFGQGTKVEIK
notes: fully human, from phage display, scFv converted to IgG; kappa

Tests used:
recombinant mouse α11β1 = target: T2, recombinant mouse α11β1 (mouse, UniProt P61622 23-1141; P09055 21-728, limits assumed); test: ELISA, plate coated with recombinant mouse α11β1
T2 construct: also called murine α11β1
T2 sequence (P61622 23-1141 limits assumed, chain 1 of 2): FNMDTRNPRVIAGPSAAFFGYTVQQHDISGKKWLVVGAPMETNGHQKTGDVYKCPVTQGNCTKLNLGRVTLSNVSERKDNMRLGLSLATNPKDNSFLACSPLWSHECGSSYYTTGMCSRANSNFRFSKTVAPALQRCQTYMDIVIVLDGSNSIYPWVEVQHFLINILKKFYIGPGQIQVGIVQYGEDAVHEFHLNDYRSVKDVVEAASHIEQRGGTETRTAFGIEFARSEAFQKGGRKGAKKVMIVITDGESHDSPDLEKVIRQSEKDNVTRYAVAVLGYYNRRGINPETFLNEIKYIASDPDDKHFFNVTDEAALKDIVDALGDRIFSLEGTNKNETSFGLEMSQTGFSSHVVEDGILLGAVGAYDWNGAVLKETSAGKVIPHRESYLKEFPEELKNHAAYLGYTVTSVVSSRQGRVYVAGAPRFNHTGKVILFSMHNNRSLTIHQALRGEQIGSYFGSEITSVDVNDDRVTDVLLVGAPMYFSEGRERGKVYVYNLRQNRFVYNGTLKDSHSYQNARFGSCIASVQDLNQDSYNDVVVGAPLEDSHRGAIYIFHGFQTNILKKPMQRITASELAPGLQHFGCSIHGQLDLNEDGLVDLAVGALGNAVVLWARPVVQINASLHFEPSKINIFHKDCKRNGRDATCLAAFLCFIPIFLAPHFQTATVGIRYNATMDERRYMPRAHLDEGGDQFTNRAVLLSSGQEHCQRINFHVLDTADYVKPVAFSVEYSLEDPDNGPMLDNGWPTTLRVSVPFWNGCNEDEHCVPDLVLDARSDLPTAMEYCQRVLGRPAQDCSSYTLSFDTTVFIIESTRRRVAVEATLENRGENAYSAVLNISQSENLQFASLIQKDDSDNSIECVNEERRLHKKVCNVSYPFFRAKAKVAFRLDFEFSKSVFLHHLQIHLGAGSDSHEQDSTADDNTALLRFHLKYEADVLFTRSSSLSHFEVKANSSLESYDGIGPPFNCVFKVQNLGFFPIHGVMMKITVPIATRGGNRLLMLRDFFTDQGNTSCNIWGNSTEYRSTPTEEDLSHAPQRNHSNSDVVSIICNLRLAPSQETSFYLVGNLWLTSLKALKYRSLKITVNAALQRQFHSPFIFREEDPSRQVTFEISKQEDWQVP
T2 sequence (P09055 21-728 limits assumed, chain 2 of 2): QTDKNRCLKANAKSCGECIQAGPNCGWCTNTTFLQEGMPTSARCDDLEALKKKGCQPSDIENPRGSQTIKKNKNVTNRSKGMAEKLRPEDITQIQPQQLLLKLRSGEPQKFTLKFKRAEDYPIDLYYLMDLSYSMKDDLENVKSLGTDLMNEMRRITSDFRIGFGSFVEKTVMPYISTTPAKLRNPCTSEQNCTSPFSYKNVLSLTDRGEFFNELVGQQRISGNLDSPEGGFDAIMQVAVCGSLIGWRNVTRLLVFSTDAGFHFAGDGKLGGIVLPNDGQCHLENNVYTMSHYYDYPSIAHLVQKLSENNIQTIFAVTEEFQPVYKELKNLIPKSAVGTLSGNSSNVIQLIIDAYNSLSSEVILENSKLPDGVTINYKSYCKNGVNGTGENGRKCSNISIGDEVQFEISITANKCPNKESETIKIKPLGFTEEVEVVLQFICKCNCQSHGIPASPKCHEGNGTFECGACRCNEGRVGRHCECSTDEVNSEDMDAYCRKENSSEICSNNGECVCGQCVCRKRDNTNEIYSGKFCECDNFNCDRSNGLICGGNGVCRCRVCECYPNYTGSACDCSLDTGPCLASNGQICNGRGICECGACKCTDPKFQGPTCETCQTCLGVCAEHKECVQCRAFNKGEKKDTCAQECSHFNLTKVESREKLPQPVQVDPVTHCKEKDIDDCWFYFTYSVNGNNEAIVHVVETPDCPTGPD
Method: (§1) 0.25 μg/mL of target antigen (recombinant human or mouse α11β1) was plated in a 96-well plate over night at 4° C. Plates were washed (PBS with 0.1% Tween-20), blocked (PBS with 2% BSA and 0.05% Tween-20) for 1 hour at room temperature and incubated with a range of antibody concentrations for 1 hour at room temperature. Subsequently, plates were washed and incubated with biotinylated anti-rabbit/mouse/human IgG in a 1:1000 dilution buffer and incubated for 1 hour at room temperature. After washing the plates, Streptavidin HRP was added at 1:200 in dilution buffer and incubated for 1 hour at room temperature. Ultra TMB ELISA substrate solution was added and the plates incubated for 5 minutes on a plate shaker. The reaction was stopped by adding stop solution to each well and plates were read at 450 nm.

[1] = target: T3, human α11β1 expressed on the surface of CHO-K1 cells (human, UniProt Q9UKX5 23-1188); test: FACS on CHO-K1 hu α11β1 cells, estimated EC50
T3 sequence (Q9UKX5 23-1188): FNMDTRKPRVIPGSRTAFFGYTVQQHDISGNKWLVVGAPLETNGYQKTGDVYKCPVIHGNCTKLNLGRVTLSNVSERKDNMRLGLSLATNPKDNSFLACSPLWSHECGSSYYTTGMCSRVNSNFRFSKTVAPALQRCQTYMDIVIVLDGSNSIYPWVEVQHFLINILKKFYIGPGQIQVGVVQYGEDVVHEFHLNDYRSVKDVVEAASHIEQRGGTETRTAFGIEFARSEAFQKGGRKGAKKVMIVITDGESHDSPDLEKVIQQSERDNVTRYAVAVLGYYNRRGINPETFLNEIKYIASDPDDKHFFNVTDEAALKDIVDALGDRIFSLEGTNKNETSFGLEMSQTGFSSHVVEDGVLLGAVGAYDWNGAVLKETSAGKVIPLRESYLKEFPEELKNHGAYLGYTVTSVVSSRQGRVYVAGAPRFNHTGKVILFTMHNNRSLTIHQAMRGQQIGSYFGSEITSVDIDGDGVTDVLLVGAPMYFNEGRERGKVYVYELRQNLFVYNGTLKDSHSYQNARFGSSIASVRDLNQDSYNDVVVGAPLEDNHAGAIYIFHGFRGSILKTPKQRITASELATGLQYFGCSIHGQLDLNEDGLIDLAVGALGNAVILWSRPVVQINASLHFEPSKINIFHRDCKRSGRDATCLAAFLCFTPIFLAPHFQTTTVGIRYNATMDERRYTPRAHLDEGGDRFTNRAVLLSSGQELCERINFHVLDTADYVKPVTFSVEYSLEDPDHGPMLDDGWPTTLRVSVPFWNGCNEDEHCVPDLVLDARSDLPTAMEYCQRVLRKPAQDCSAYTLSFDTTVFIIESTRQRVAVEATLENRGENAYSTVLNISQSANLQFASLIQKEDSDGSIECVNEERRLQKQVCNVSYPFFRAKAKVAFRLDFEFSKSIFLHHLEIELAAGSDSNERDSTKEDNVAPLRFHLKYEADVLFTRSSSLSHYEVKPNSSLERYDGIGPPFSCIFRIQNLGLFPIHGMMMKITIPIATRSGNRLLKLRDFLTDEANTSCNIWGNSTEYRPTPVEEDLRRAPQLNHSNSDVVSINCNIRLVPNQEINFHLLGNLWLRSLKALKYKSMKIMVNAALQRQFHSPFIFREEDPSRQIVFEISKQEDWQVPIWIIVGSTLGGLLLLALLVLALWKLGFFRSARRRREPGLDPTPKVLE
Method: (§2) 200,000 cells (wild-type CHO-K1 cells or CHO-K1 cells expressing human α11) were incubated with each antibody at desired concentrations in FACS buffer for 30 min at 4° C. Then, the cells were washed with FACS buffer and incubated with secondary antibody at 1:100 dilution for 30 minutes at 4° C. Cells were then washed and fixed with 1% PFA in PBS for 20 minutes at room temperature; washed again and read on a cytometer in FACS buffer.
Binding EC₅₀ was estimated using data from Fluorescence-activated cell sorting (FACS) performed with CHO-K1 hu α11β1 cells. Four out of six mAbs tested had EC₅₀ results in the low nanomolar range (8-P20, 8-G15, 8-J17, 8-l14), while the remaining two mAbs were not as potent (9-G05 and 9-E16; both I domain binders).

recombinant human α11β1 [2] = target: T4, recombinant human α11β1 (human, UniProt Q9UKX5 23-1141; P05556 21-728); test: ELISA, plate coated with recombinant human α11β1
T4 construct: Coated in ELISA; ELISA and SPR material treated as one molecule; also called HIS-tagged human α11β1; integrin alpha 11 beta 1
T4 sequence (Q9UKX5 23-1141 limits assumed, chain 1 of 2): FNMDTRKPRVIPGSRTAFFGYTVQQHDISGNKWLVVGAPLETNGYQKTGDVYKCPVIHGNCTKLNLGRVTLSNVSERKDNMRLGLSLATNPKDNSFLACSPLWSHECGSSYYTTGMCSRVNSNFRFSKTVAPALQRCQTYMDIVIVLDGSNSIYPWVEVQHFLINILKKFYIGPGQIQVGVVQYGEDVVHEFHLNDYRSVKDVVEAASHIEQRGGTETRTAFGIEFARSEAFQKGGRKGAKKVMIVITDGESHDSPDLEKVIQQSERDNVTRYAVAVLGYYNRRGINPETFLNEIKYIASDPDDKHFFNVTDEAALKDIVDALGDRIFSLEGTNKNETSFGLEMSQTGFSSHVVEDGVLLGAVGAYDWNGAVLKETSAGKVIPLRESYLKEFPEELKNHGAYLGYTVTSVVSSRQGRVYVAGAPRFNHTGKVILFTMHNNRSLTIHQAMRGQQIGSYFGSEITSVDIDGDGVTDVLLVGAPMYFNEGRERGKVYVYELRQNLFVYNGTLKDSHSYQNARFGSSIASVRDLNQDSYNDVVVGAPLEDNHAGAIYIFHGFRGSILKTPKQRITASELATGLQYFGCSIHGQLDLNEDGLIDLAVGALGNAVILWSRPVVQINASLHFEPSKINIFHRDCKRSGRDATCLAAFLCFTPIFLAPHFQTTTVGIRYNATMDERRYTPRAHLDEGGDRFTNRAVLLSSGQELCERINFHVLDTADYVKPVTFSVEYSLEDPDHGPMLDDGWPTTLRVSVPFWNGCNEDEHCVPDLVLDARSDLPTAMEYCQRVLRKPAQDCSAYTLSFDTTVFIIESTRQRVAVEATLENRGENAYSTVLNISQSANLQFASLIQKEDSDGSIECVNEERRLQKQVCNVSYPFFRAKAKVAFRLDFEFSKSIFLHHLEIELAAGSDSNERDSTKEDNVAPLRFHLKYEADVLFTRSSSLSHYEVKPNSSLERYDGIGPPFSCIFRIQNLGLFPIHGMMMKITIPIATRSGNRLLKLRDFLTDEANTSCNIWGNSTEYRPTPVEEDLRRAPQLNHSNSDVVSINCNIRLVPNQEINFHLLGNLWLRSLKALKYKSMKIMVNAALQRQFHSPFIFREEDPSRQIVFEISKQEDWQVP
T4 sequence (P05556 21-728 limits assumed, chain 2 of 2): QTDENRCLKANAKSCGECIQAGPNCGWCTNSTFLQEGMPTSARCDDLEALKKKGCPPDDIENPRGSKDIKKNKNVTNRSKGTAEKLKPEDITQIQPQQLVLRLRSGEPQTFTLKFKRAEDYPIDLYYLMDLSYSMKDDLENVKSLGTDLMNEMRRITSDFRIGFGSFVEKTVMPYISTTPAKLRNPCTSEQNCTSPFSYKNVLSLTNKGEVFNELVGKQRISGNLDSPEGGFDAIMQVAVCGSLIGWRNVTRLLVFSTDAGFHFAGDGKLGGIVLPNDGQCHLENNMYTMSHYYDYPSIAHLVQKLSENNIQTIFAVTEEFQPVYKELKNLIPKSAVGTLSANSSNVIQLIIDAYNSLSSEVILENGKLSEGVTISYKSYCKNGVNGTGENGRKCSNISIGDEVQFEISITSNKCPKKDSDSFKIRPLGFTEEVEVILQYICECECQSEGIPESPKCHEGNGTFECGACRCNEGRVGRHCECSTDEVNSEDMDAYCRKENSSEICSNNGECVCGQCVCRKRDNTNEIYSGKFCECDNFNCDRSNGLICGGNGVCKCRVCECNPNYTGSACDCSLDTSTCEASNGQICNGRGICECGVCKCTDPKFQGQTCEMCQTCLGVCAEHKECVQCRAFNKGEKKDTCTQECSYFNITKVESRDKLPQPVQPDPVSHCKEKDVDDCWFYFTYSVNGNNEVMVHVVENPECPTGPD
Method: as §1

[3] = target: T1, in-house generated I domain of α11β1; test: ELISA on the human α11β1 I domain
recombinant human α11β1 [4] = target: T4, recombinant human α11β1; test: ELISA on recombinant human α11β1
Method: as §1

[5] = target: T5, α11β1 on human myofibroblasts (MF) (human, UniProt Q9UKX5 23-1188; P05556 21-798); test: FACS on human myofibroblasts
T5 construct: whole, on cells
Method: (§3) Human Pulmonary Fibroblasts (ScienCell) were cultured in complete Fibroblast Growth Medium (ScienCell) until 80% confluent in T-150 flasks. Cells were washed and harvested using Accutase. Cells were seeded into T-150 flasks at 7,500 cells/cm² in complete FGF and cultured for 72 hours. Cells were then washed and starved in serum reduced medium for 24 hours. After starvation, cells were treated with TGFβ-1 (R&D Systems) for 72 hours. Cells were harvested using Accutase and seeded in 96-well conical bottom plates. Cells were blocked with Heat Inactived Fetal Bovine Serum (Gibco) for 30 minutes at 4° C. Cells were then incubated with anti-α11 antibodies at the doses described in each figure for 30 minutes at 4° C. A human anti-α11 antibody (Creative BioLabs) was included as a positive control as well as the appropriate IgG isotype negative controls. Cells were washed twice and incubated with PE conjugated secondary antibodies specific to the IgG class of the anti-α11 antibodies being tested for 30 minutes at 4° C. Cells were washed twice and fixed in 1% PFA for 30 minutes. Cells were acquired on a FACS Verse […]. Data were analyzed by gating on single cells and determining the geometric Mean Fluorescence Intensity (gMFI) in the PE channel for each sample.

[6] = target: T1, in-house generated I domain of α11β1; test: ELISA on the human α11β1 I domain; remark: listed apart in the source
[7] = target: T3, human α11β1 expressed on the surface of …; test: FACS titration on Human CHO-α11 cells
Method: as §2

recombinant human α11β1 [8] = target: T4, recombinant human α11β1; test: SPR (Biacore T200), HIS-tagged human α11β1 captured on anti-HIS, single-cycle kinetics, 1:1 Langmuir fit
Method: (§4) The affinity of antibodies for human α11β1 was measured by surface plasmon resonance assay (SPR). Affinity was measured at pH 7.6 and 25° C. with a Biacore T200 instrument. Anti-HIS antibody was immobilized on the SPR sensor surface using EDC/NHS covalent attachment. HIS-tagged human α11β1 was captured on the sensor surface and a single-cycle kinetics assay was used. Increasing concentrations of test antibody were injected in series over the sensor-bound α11β1. Dissociation was monitored for 1000 seconds. A sensor surface with only anti-HIS antibody and a series of blank injections were used to double-reference subtract the data. A 1:1 Langmuir model was fit to the data to estimate the kinetic association and dissociation constants. The affinity (equilibrium dissociation constant) of the interaction was calculated by dividing the kinetic dissociation constant by the kinetic association constant. Between injection cycles α11β1 and bound antibody were removed with an injection of 10 mM glycine at pH 1.5.

recombinant human α11β1 [9] = target: T4, recombinant human α11β1; test: SPR, HIS-tagged human α11β1 captured by anti-HIS, antibody as analyte, single-cycle kinetics
Method: as §4
The binding affinity of antibodies for the α11β1 Headpiece and α11β1 I Domain as measured by SPR is shown in FIG. 10A and FIG. 10B, respectively.

[10] = target: T5, α11β1 on human myofibroblasts (MF); test: FACS titration on human myofibroblasts
Method: as §3

Mouse CHO-α11 = Mouse CHO-α11 (mouse, UniProt P61622); test: FACS titration on Mouse CHO-α11 cells
[11] = target: T1, in-house generated I domain of α11β1; test: SPR, single-cycle injections of 33, 100 and 300 nM over the a11b1 I Domain

| Binder | EC50 (read off the curve) (recombinant mouse α11β1) | EC50 [1] | EC50 (read off the curve) (recombinant human α11β1 [2]) | binding result [3] | binding result (recombinant mouse α11β1) | further results |
| --- | --- | --- | --- | --- | --- | --- |
| B1 | ~6 ng/mL | 42.8 µg/mL and 285 nM | ~1 ng/mL |  |  |  |
| B2 |  | 0.12 µg/mL and 0.8 nM | ~0.03 ng/mL | no binding (tested: 1 µg/mL) | no binding (tested: 1 µg/mL) |  |
| B3 |  | 0.33 µg/mL and 2.2 nM | ~0.1 ng/mL | no binding (tested: 1 µg/mL) | no binding (tested: 1 µg/mL) |  |
| B4 |  |  |  |  |  | binding result (recombinant human α11β1 [4]): binds; binding result [5]: binds; binding result [6]: no binding (tested: 2 µg/ml) |
| B5 | ~30 ng/mL | 21 µg/mL and 140 nM | ~10 ng/mL |  |  | EC50 (read off the curve) [3]: ~0.3 ng/mL; EC50 [7]: 187 nM; koff (recombinant human α11β1 [8]): 4.99e-05 s⁻¹; kon (recombinant human α11β1 [8]): 17500 M⁻¹ s⁻¹; Kd (recombinant human α11β1 [9]): 2.85 nM |
| B6 |  | 0.22 µg/mL and 1.5 nM | ~0.03 ng/mL | no binding (tested: 1 µg/mL) | no binding (tested: 1 µg/mL) |  |
| B7 |  |  |  |  |  | binding result [6]: no binding (tested: 2 µg/ml) |
| B8 | ~6 ng/mL | 1.22 µg/mL and 8.1 nM | ~0.2 ng/mL | no binding (tested: 1 µg/mL) |  |  |
| B9 |  |  |  |  |  | EC50 [10]: 0.53 µg/mL and 3.5 nM; EC50 (Mouse CHO-α11): 29 nM; EC50 [7]: 7.75 nM; koff (recombinant human α11β1 [8]): 0.000289 s⁻¹; kon (recombinant human α11β1 [8]): 374000 M⁻¹ s⁻¹; Kd (recombinant human α11β1 [9]): 0.77 nM; binding result [11]: no binding (tested: 300 nM) |
